The values that follow are results of earlier work, collected in article PMC4246237.

Like-named read-outs stand apart in the source and are kept apart here.

Data set [1] concerns the target AVP (Human adenovirus 2) (UniProt P03252).
For data set [2] the target is unchanged. The source holds these as a separate data set.

UniProt P03252, sequence (P03252 whole entry): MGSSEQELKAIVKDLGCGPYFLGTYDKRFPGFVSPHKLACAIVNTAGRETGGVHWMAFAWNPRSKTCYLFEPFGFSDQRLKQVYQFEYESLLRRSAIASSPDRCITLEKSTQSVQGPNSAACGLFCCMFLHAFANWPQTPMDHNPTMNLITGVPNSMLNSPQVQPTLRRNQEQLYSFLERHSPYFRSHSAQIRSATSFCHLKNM

Regarding pVIc pVIc (from UniProt P03274), the Kd is 4400 nM with AVP (Human adenovirus 2) [1] and 90 nM with AVP (Human adenovirus 2) [2].
